Assay results taken from paper PMC7323874, “Vancomycin Resistance Is Overcome by Conjugation of Polycationic Peptides” (Angewandte Chemie (International Ed. in English), 2020).

What was measured:
[1] = test system: human erythrocytes; assay: Hemolysis assay; assay type: cell-based; conditions: up to a concentration of 640 µg/ml; 120 min at 37 °C; absorption at 554 nm; 1% Triton X-100 as positive control
Protocol: For hemolysis studies, blood from four different, fasted men were taken to determine the hemoglobin release. Erythrocytes were purified centrifuging blood at 2500 rpm for 3 min. The remaining pellet was washed with PBS and centrifuged again. This process was repeated until the supernatant remained clear.
For the hemolysis assay, v-bottom plates were used. FU002 was tested in duplicates in three different assays. As positive control, a 1% Triton® in 0.9%-NaCl solution was used.
FU002 was serial diluted on the plate, resulting in 50 µl of a final concentration of 640 µg/ml to 1.25 µg/ml. Every well contained 50 µl of the purified erythrocytes. […] 50 µl of the supernatant were transferred to a flat-bottom plate and absorption was measured at 554 nm.
Hemolysis was calculated as followed: […]
Cobra Auto γ-Counter, (Packard Bioscience, USA) in comparison with standards. The tissue-associated activity was related to the total injected dose (ID) and expressed as a percentage of the total injected dose per gram of tissue (%ID/g). […]
Mice were infected by intravenous application of the bacterial inoculum via the tail vein. […] During infection, mice were scored twice daily and sacrificed at day 4 post infection and livers harvested. […] Significant differences in the CFU of the livers were determined with Kruskal-Wallis test (software: GraphPad Prism 5.0).

[2] = Molecular imaging (PET, scintigraphy) and biodistribution of radiolabeled compounds; assay type: in vivo, female Wistar rats; conditions: for scintigraphy, distribution and excretion: i.v.
Protocol: Biodistribution and pharmacokinetic studies
The biodistribution and pharmacokinetic studies were performed with radiolabeled (124I/125I) compounds. For this radiolabeling strategy, a D-tyrosine-modified derivative was synthesized, which enabled the […] substitution. The D-tyrosine was located at the N-terminus of the respective peptide. Vancomycin was radiolabeled without any further structural modification. For radiolabeling, a 1 mM stock solution of phosphate buffer/dimethyl sulfoxide was prepared as described previously by Uhl et al.12 The required amount of radioactive iodine-124 (124I) or rather iodine-125 (125I) was added to a mixture of 25 µl of the stock solution and 25 µl of a phosphate buffer (0.25 mM; pH 7.5). Radiolabeling was performed using the chloramine T method as previously described by Crim et al.13 The labeled compound was purified by semi-preparative HPLC. Analysis was done by radio-HPLC (Agilent 1100 series) using a Chromolith® Performance RP-18e, 100–3 mm column applying a linear gradient of 0.1% TFA in water (eluent A) to 0.1% TFA in acetonitrile (eluent B) within 5 min; flow rate 2 ml/min; UV absorbance λ = 214 nm; γ-detection. The animal trials were approved by the Animal Care and Use committees at the Regierungspräsidium Karlsruhe, Germany. Adult, female, Wistar rats (200 – 250 g) were purchased from Janvier Labs (Le Genest-Saint-Isle, France). The animals were anaesthetized by isoflurane inhalation and appropriate amounts of the 124I/125I labelled peptides, dissolved in 100 µl of 0.9% NaCl were injected into the tail vein. For PET-imaging, an Inveon small animal PET scanner (Siemens) was used. Therefore, the animals were sacrificed 10 min or 60 min after injection of the radiolabeled compound and images were taken afterwards. The scintigraphic images were obtained using a γ-camera (Gamma Imager, Biospace, France). Cumulative images from 0–10 min, 60–70 min and 120–130 min after injection, were taken. For the biodistribution studies, the animals were sacrificed at certain time points, the organs were removed and weighed and the radioactivity of each sample was measured using a Cobra Auto γ-Counter, (Packard Bioscience, USA) in comparison with standards. The tissue-associated activity was related to the total injected dose (ID) and expressed as a percentage of the total injected dose per gram of tissue (%ID/g).
In vivo infection experiments
Animal studies were approved by the local government of Lower Franconia, Germany (approval number 55.2-2532-2-57) and performed in strict accordance with the guidelines for animal care and experimentation of German Animal Protection Law and the DIRECTIVE […]
For the in vivo experiments, we applied S. aureus strain USA300 LAC* lux, which was constructed by transducing the luxABCDE operon from S. aureus Xen29 (PerkinElmer, Waltham, MA, USA) with phage φ11 into S. aureus LAC* (AH2163).14 Overnight cultures of S. aureus USA300 LAC* lux in BHI medium were diluted to a final OD600 nm of 0.05 in 50 ml fresh BHI medium and grown for 3.5 hours at 37 °C. After centrifugation, the cell pellet was resuspended in BHI with 20 % glycerol, aliquoted and stored at -80 °C. For the generation of in vivo infection inocula, aliquots were thawed and washed twice with PBS. The desired bacterial concentration (5 x 10^7 CFU/100 µl) was then adjusted based on the respective OD600 nm values. A sample of the infection inoculum was plated on TSB agar plates in order to control the infection dose.
Female Balb/c mice (6 weeks, Janvier Labs, Le Genest-Saint-Isle, France) were used for all experiments.
Mice were infected by intravenous application of the bacterial inoculum via the tail vein. Treatment started at 2 hours p.i. and following doses were applied every 12 hours. The vancomycin group received 30 mg/kg body weight/ per day, the FU002 group received 56.4 mg/kg body weight/per day, the control group received equal amounts of sterile PBS at the respective time points. The mice were […]

[3] = 125I-labeled compounds (FU002 as 125I-FU002y), 10 min post injection
[4] = 125I-labeled compounds (FU002 as D-Tyr derivative), 60 min post injection

SMILES | hemolytic activity [1] | PET imaging, distribution and excretion ([2]; 124I-labeled compounds, i.v. tail vein, 10 min post injection) | scintigraphy, distribution and excretion [2, 3] | scintigraphy, distribution and excretion [2, 4] | biodistribution, organ uptake ([2]; 125I-labeled, 10 min post injection, compared with vancomycin) | biodistribution, retention in organ ([2]; 125I-labeled, after 1 hour, compared with vancomycin)
CN[C@H](CC(C)C)C(=O)N[C@H]1C(=O)N[C@@H](CC(N)=O)C(=O)N[C@H]2C(=O)N[C@H]3C(=O)N[C@H](C(=O)N[C@H](C(=O)O)c4cc(O)cc(O)c4-c4cc3ccc4O)[C@H](O)c3ccc(c(Cl)c3)Oc3cc2cc(c3O[C@@H]2O[C@H](CO)[C@@H](O)[C@H](O)[C@H]2O[C@H]2C[C@](C)(N)[C@H](O)[C@H](C)O2)Oc2ccc(cc2Cl)[C@H]1O [vancomycin] | no relevant hemolytic activity | renal excretion | fast, renal excretion | almost completely excreted and only found in the bladder | – | –
CC(C)C[C@H](C(=O)N[C@H]1C(=O)N[C@@H](CC(N)=O)C(=O)N[C@H]2C(=O)N[C@H]3C(=O)N[C@H](C(=O)N[C@H](C(=O)O)c4cc(O)cc(O)c4-c4cc3ccc4O)[C@H](O)c3ccc(c(Cl)c3)Oc3cc2cc(c3O[C@@H]2O[C@H](CO)[C@@H](O)[C@H](O)[C@H]2O[C@H]2C[C@](C)(N)[C@H](O)[C@H](C)O2)Oc2ccc(cc2Cl)[C@H]1O)N(C)C(=O)C1CCC(CN2C(=O)CC(SC[C@H](NC(=O)[C@H](CCCNC(=N)N)NC(=O)[C@H](CCCNC(=N)N)NC(=O)[C@H](CCCNC(=N)N)NC(=O)[C@H](CCCNC(=N)N)NC(=O)[C@H](CCCNC(=N)N)NC(=O)[C@@H](N)CCCNC(=N)N)C(N)=O)C2=O)CC1 (stereo partly drawn) [FU002] | no relevant hemolytic activity | – | directs in the liver and the kidneys | much slower excretion | much higher organ uptake | remains much longer in the corresponding organ
